Source: the supplement of paper PMC11246515
± gives the standard deviation of the averaged measurements.

Assay: total protein half-life in vivo (active degradation + dilution); higher = more stable protein
[1] = E. coli NCM3722 delta-clpP delta-lon delta-hslV, growth: N-lim chemostat, doubling time 6 h
[2] = wild type E. coli NCM3722, growth: C-lim chemostat, doubling time 3 h
[3] = wild type E. coli NCM3722, growth: C-lim chemostat, doubling time 6 h
[4] = wild type E. coli NCM3722, growth: C-lim chemostat, doubling time 12 h
[5] = E. coli NCM3722 delta-clpP, growth: N-lim chemostat, doubling time 6 h
[6] = E. coli NCM3722 delta-lon, growth: N-lim chemostat, doubling time 6 h
[7] = E. coli NCM3722 delta-smpB, growth: N-lim chemostat, doubling time 6 h
[8] = wild type E. coli NCM3722, growth: N-lim chemostat, doubling time 6 h
[9] = wild type E. coli NCM3722, growth: N-lim chemostat, doubling time 12 h
[10] = wild type E. coli NCM3722, growth: P-lim chemostat, doubling time 6 h
[11] = wild type E. coli NCM3722, growth: P-lim chemostat, doubling time 12 h
[12] = E. coli NCM3722 delta-hslV, growth: N-lim chemostat, doubling time 6 h

Sequence	total protein half-life in vivo [1]	total protein half-life in vivo [2]	total protein half-life in vivo [3]	total protein half-life in vivo [4]	total protein half-life in vivo [5]	total protein half-life in vivo [6]	total protein half-life in vivo [7]	total protein half-life in vivo [8]	total protein half-life in vivo [9]	total protein half-life in vivo [10]	total protein half-life in vivo [11]	total protein half-life in vivo [12]
MNTIASVTLPHHVHAPRYDRQQLQSRIVHFGFGAFHRAHQALLTDRVLNAQGGDWGICEISLFSGDQLMSQLRAQNHLYTVLEKGADGNQVIIVGAVHECLNAKLDSLAAIIEKFCEPQVAIVSLTITEKGYCIDPATGALDTSNPRIIHDLQTPEEPHSAPGILVEALKRRRERGLTPFTVLSCDNIPDNGHVVKNAVLGMAEKRSPELAGWIKEHVSFPGTMVDRIVPAATDESLVEISQHLGVNDPCAISCEPFIQWVVEDNFVAGRPAWEVAGVQMVNDVLPWEEMKLRMLNGSHSFLAYLGYLSGFAHISDCMQDRAFRHAARTLMLDEQAPTLQIKDVDLTQYADKLIARFANPALKHKTWQIAMDGSQKLPQRMLAGIRIHQGRETDWSLLALGVAGWMRYVSGVDDAGNAIDVRDPLSDKIRELVAGSSSEQRVTALLSLREVFGDDLPDNPHFVQAIEQAWQQIVQFGAHQALLNTLKI	5.54 ± 0.38 h	0.36 ± 0.057 h	0.863 h	0.917 h	–	–	–	–	–	–	–	–
MKIILLFLAALASFTVHAQPPSQTVEQTVRHIYQNYKSDATAPYFGETGERAITSARIQQALTLNDNLTLPGNIGWLDYDPVCDCQDFGDLVLESVAITQTDADHADAVVRFRIFKDDKEKTTQTLKMVAENGRWVIDDIVSNHGSVLQAVNSENEKTLAALASLQKEQPEAFVAELFEHIADYSWPWTWVVSDSYRQAVNAFYKTTFKTANNPDEDMQIERQFIYDNPICFGEESLFSRVDEIRVLEKTADSARIHVRFTLTNGNNEEQELVLQRREGKWEIADFIRPNSGSLLKQIEAKTAARLKQ	5.65 h	3.56 h	> 8 h	11.1 ± 0.5 h	5.01 ± 0.93 h	6.249 ± 0.025 h	5.65 ± 0.12 h	6.33 ± 0.27 h	12.3 ± 1.8 h	6.45 h	11.28 ± 0.1 h	–
MLSKFKRNKHQQHLAQLPKISQSVDDVDFFYAPADFRETLLEKIASAKQRICIVALYLEQDDGGKGILNALYEAKRQRPELDVRVLVDWHRAQRGRIGAAASNTNADWYCRMAQENPGVDVPVYGVPINTREALGVLHFKGFIIDDSVLYSGASLNDVYLHQHDKYRYDRYHLIRNRKMSDIMFEWVTQNIMNGRGVNRLDDVNRPKSPEIKNDIRLFRQELRDAAYHFQGDADNDQLSVTPLVGLGKSSLLNKTIFHLMPCAEQKLTICTPYFNLPAILVRNIIQLLREGKKVEIIVGDKTANDFYIPEDEPFKIIGALPYLYEINLRRFLSRLQYYVNTDQLVVRLWKDDDNTYHLKGMWVDDKWMLITGNNLNPRAWRLDLENAILIHDPQLELAPQREKELELIREHTTIVKHYRDLQSIADYPVKVRKLIRRLRRIRIDRLISRIL	5.434 ± 0.046 h	2.97 ± 0.26 h	5.64 ± 0.11 h	9.36 ± 0.81 h	5.74 ± 0.068 h	5.91 ± 0.5 h	4.896 ± 0.011 h	5.01 ± 0.21 h	8.57 ± 0.86 h	6.41 ± 0.85 h	12 ± 1.5 h	5.18 ± 0.38 h
MSVIGRIHSFESCGTVDGPGIRFITFFQGCLMRCLYCHNRDTWDTHGGKEVTVEDLMKEVVTYRHFMNASGGGVTASGGEAILQAEFVRDWFRACKKEGIHTCLDTNGFVRRYDPVIDELLEVTDLVMLDLKQMNDEIHQNLVGVSNHRTLEFAKYLANKNVKVWIRYVVVPGWSDDDDSAHRLGEFTRDMGNVEKIELLPYHELGKHKWVAMGEEYKLDGVKPPKKETMERVKGILEQYGHKVMF [P0A9N4]	4.86 ± 0.073 h	2.9 ± 0.1 h	5.48 ± 1 h	9.78 ± 0.27 h	5.05 ± 1.6 h	4.485 ± 0.029 h	3.9 ± 0.28 h	4.41 ± 0.36 h	6.62 ± 0.36 h	4.78 ± 0.3 h	10.1 ± 0.91 h	5.08 ± 0.1 h
MMVQHLKRRPLSRYLKDFKHSQTHCAHCRKLLDRITLVRDGKIVNKIEISRLDTLLDENGWQTEQKSWAALCRFCGDLHCKTQSDFFDIIGFKQFLFEQTEMSPGTVREYVVRLRRLGNHLHEQNISLDQLQDGFLDEILAPWLPTTSTNNYRIALRKYQHYQRQTCTRLVQKSSSLPSSDIY	6.005 ± 0.037 h	0.828 ± 0.34 h	–	1.23 h	–	–	–	–	–	–	–	–
MNKAIKVSLYISFVLIICALSKNIMMLNTSDFGRAIKPLIEDIPAFTYDLPLLYKLKGHIDSIDSYEYISSYSYILYTYVLFISIFTEYLDARVLSLFLKVIYIYSLYAIFTSYIKTERYVTLFTFFILAFLMCSSSTLSMFASFYQEQIVIIFLPFLVYSLTCKNNKSMLLLFFSLLIISTAKNQFILTPLIVYSYYIFFDRHKLIIKSVICVVCLLASIFAISYSKGVVELNKYHATYFGSYLYMKNNGYKMPSYVDDKCVGLDAWGNKFDISFGATPTEVGTECFESHKDETFSNALFLLVSKPSTIFKLPFDDGVMSQYKENYFHVYKKLHVIYGESNILTTITNIKDNIFKNIRFISLLLFFIASIFIRNNKIKASLFVVSLFGISQFYVSFFGEGYRDLSKHLFGMYFSFDLCLYITVVFLIYKIIQRNQDNSDVKH	5.64 h	–	6.387 ± 0.036 h	12 h	6.29 ± 1.9 h	4.87 ± 0.47 h	4.88 ± 0.4 h	5.59 ± 0.57 h	9.92 ± 2.3 h	5.62 ± 0.53 h	10.2 ± 1.1 h	5.24 ± 0.26 h
